Patent publication US20150368338A1 (Janssen / Centocor, published 2015)
Positions count from the first letter of the chain named.

T1: IFN-αF (human, UniProt P01568 24-189)
T1 chain: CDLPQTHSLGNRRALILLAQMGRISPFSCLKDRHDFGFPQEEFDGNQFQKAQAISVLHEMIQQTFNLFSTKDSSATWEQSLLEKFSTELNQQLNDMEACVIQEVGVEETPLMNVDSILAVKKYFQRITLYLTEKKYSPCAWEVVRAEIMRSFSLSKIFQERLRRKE

B1: IFWM3331 (antibody, IgG1, V domains shown)
VH: EVQLVQSGAEVKKPGESLKISCKGSGYSFTSYWIGWVRQMPGKGLEWMGIIDPSDSDTRYSPSFQGQVTISADKSISTAYLQWSSLKASDTAMYYCARHPGLNWAPDFDYWGQGTLVTVSS
VL: DIQMTQSPSSLSASVGDRVTITCRASQSIDNSYLNWYQQKPGKAPKLLIYGASSLQSGVPSRFSGSGSGTDFTLTISSLQPEDFATYYCQQGWDWPLTFGQGTKVEIK
B2: IFWM3322 (antibody, IgG1, V domains shown)
VH: B1 VH
VL: DIQMTQSPSSLSASVGDRVTITCRASQSIADFLNWYQQKPGKAPKLLIYFASSLQSGVPSRFSGSGSGTDFTLTISSLQPEDFATYYCQQSHSFPLTFGQGTKVEIK
B3: IFWM3332 (antibody, IgG1, V domains shown)
VH: B1 VH
VL: B1 VL with D30A, S32T, Y33N, Y50H, G51W, G92W, W93Y, W95N
B4: IFWM3304 (antibody, IgG1, V domains shown)
VH: B1 VH
VL: B2 VL with A30G, D31S, F32A, H92Y, S93D
B5: IFWM3320 (antibody, IgG1, V domains shown)
VH: B1 VH
VL: B2 VL with A30N, D31G, F32V, S93D
B6: IFWM3421 (antibody, IgG1, V domains shown)
VH: B1 VH
VL: B2 VL with A30D, D31G, H92Y, S93D, F94L, L96I
B7: IFWM3310 (antibody, IgG1, V domains shown)
VH: B1 VH
VL: B2 VL with A30G, D31K, F32S, H92Y, S93D
B8: IFWM3321 (antibody, IgG1, V domains shown)
VH: B1 VH
VL: B2 VL with A30D, D31G, F32A, S91A, H92Y, S93D
B9: IFWM3307 (antibody, IgG1, V domains shown)
VH: B1 VH
VL: B2 VL with A30G, S91A, H92L, S93D
B10: IFWM371 (antibody, IgG1, V domains shown)
VH: B1 VH
VL: not shown
B11: IFWM3328 (antibody, IgG1, V domains shown)
VH: B1 VH
VL: DIQMTQSPSSLSASVGDRVTITCRASQSINNLNWYQQKPGKAPKLLIYWASSLQSGVPSRFSGSGSGTDFTLTISSLQPEDFATYYCQQGYDTPFTFGQGTKVEIK
B12: IFWM3308 (antibody, IgG1, V domains shown)
VH: B1 VH
VL: B2 VL with D31E, H92I, S93D
B13: IFWM3423 (antibody, IgG1, V domains shown)
VH: B1 VH with N103A
VL: B2 VL with A30D, D31G, H92Y, S93D, F94L, L96I
B14: IFWM3314 (antibody, IgG1, V domains shown)
VH: B1 VH
VL: B2 VL with A30D, D31R, F32A, H92F, S93D
B15: IFWM3413 (antibody, IgG1, V domains shown)
VH: B1 VH with N103A
VL: B11 VL with N31Y, W49G, G90S, Y91H, T93W, F95I
notes: mAb; IgG1/kappa said of the parent and of selected mAbs; also called IFWB3148
B16: IFWM3407 (antibody, IgG1, V domains shown)
VH: B1 VH with N103A
VL: B1 VL with D30R, S32N, Y33N, Y50H, G51W, W93Y, W95T, L97F
notes: mAb; IgG1/kappa said of the parent and of selected mAbs; also called IFWB3142
B17: IFWM3411 (antibody, IgG1, V domains shown)
VH: B1 VH with N103A
VL: B1 VL with S32N, Y33N, G51A, W93Y
notes: mAb; IgG1/kappa said of the parent and of selected mAbs; also called IFWB3146
B18: IFWM3378 (antibody, IgG1, V domains shown)
VH: B1 VH with R59A
VL: B1 VL with D30A, S32N, Y33D, Y50H, G51W, G92D, W93Y
notes: mAb; IgG1/kappa said of the parent and of selected mAbs; also called IFWB3113
B19: IFWM3409 (antibody, IgG1, V domains shown)
VH: B1 VH with N103A
VL: B1 VL
notes: mAb; IgG1/kappa said of the parent and of selected mAbs; also called IFWB3144
B20: IFWM3414 (antibody, IgG1, V domains shown)
VH: B1 VH with N103A
VL: B1 VL with D30R, S32N, G51A, W93Y, W95T
notes: mAb; IgG1/kappa said of the parent and of selected mAbs; also called IFWB3149
B21: IFWM3377 (antibody, IgG1, V domains shown)
VH: B1 VH with R59A
VL: B1 VL with D30R, S32T, Y33N, Y50H, G51W, W93Y, W95T, L97F
notes: mAb; IgG1/kappa said of the parent and of selected mAbs; also called IFWB3112
B22: IFWM3415 (antibody, IgG1, V domains shown)
VH: B1 VH with N103A
VL: B1 VL with D30S, Y33N, Y50H, G51W, G92W, W93Y, W95H
notes: mAb; IgG1/kappa said of the parent and of selected mAbs; also called IFWB3150
B23: IFWM3406 (antibody, IgG1, V domains shown)
VH: B1 VH with N103A
VL: B11 VL
notes: mAb; IgG1/kappa said of the parent and of selected mAbs; also called IFWB3141
B24: IFWM3417 (antibody, IgG1, V domains shown)
VH: B1 VH with N103A
VL: B1 VL with D30A, S32N, Y33D, Y50H, G51W, G92D, W93Y
notes: mAb; IgG1/kappa said of the parent and of selected mAbs; also called IFWB3152

target: IFN-αH2 (human, UniProt P01570 24-189); assay: cell-based or functional assay

IC50, ISRE assay [nM]	Binder
0.033	B1
0.046	B2
0.092	B3
0.042	B4
0.023	B5
0.008	B6
0.045	B7
0.028	B8
0.088	B9
9.6	B10
0.44	B11
0.032	B12
0.004	B13
0.04	B14

target: T2, IFN-αC (human, UniProt P01566 24-189); assay: cell-based or functional assay

IC50, ISRE assay [nM]	Binder
0.098	B1
0.306	B2
0.479	B3
0.117	B4
0.392	B5
0.02	B6
0.196	B7
0.266	B8
0.583	B9
53.9	B10
1.42	B11
0.996	B12
0.012	B13
0.157	B14

Target: T1, IFN-αF
Assay: cell-based or functional assay

IC50, ISRE assay [nM]	Binder
0.048	B1
0.117	B2
0.228	B3
0.062	B4
0.054	B5
0.011	B6
0.111	B7
0.054	B8
0.17	B9
16	B10
0.631	B11
0.155	B12
0.008	B13
0.058	B14

target: T3, IFN-αG (human, UniProt P01569 24-189); assay: cell-based or functional assay

IC50, ISRE assay [nM]	Binder
0.027	B1
0.083	B2
0.099	B3
0.047	B4
0.082	B5
0.018	B6
0.073	B7
0.034	B8
0.095	B9
12.9	B10
0.486	B11
0.167	B12
0.009	B13
0.057	B14

target: T4, human IFN-ω (human, UniProt P05000 24-195); assay: ProteOn SPR, cell supernatant;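 also: each binding measurement used just a single antigen concentration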
T4 construct: Recombinant, HEK293; also called interferon omega

Kd [nM]	Binder
0.047	B15
0.017	B16
0.028	B17
0.075	B18
0.014	B19
0.058	B20
0.027	B21
0.018	B22
0.078	B23
0.029	B24

target: T2, IFN-αC; assay: ProteOn SPR, cell supernatant;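 also: each binding measurement used just a single antigen concentration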

Kd [nM]	Binder
0.037	B15
0.032	B16
0.023	B17
0.172	B18
0.011	B19
0.068	B20
0.044	B21
0.019	B22
0.037	B23
0.031	B24

Target: T1, IFN-αF
Assay: ProteOn SPR, cell supernatant;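 also: each binding measurement used just a single antigen concentration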

Kd [nM]	Binder
0.033	B15
0.033	B16
0.037	B17
0.168	B18
0.009	B19
0.101	B20
0.051	B21
0.026	B22
0.037	B23
0.039	B24

target: T5, IFN-αJ1 (human, UniProt P01567 24-189); assay: ProteOn SPR, cell supernatant;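 also: each binding measurement used just a single antigen concentration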
T5 construct: Recombinant, HEK293; also called IFN-α7

Kd [nM]	Binder
0.15	B15
0.058	B16
0.151	B17
0.496	B18
0.041	B19
0.174	B20
0.192	B21
0.051	B22
0.119	B23
0.07	B24

target: T6, IFN-α4a (human, UniProt P05014 24-189); assay: ProteOn SPR, cell supernatant;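 also: each binding measurement used just a single antigen concentration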
T6 construct: Recombinant, HEK293; also called IFN-αM1

Kd [nM]	Binder
0.206	B15
0.128	B16
0.101	B17
0.533	B18
0.058	B19
0.193	B20
0.193	B21
0.069	B22
0.135	B23
0.1	B24

target: T3, IFN-αG; assay: ProteOn SPR, cell supernatant;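 also: each binding measurement used just a single antigen concentration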

Kd [nM]	Binder
0.044	B15
0.027	B16
0.035	B17
0.15	B18
0.005	B19
0.033	B20
0.038	B21
0.026	B22
0.037	B23
0.03	B24

target: T7, IFN-αWA (human, UniProt P05015 24-189); assay: ProteOn SPR, cell supernatant
T7 construct: Recombinant, HEK293; also called IFN-α16

Kd [nM]	Binder
0.085	B15
0.06	B16
0.087	B17
0.248	B18
0.025	B19
0.07	B20
0.12	B21
0.044	B22
0.063	B23
0.059	B24
